The target in one experiment is MDA5 (UniProt Q9BYX4). As to the kind of experiment: co-IP. The settings on record: reference: API5 wild type; sites S464.
Another experiment deals with RIG‐I (UniProt O95786). As to the kind of experiment: co-IP. The settings on record: reference: API5 wild type; sites S464.
The next experiment has as its target p62 (UniProt Q13501). Briefly: co-IP. Conditions: reference: API5 wild type; sites S464.
In a further experiment the target is T1, His-SRPK1 (human (amplified from HEK293T cells), UniProt Q96SB4 1-655).
T1 construct: SRPK1, full-length gene amplified from HEK293T cells, in pET-28a; also called pET-28a-SRPK1; source: E. coli BL21 (pLysS), purified (Ni-NTA)
As to the kind of experiment: pull-down; purified GST-API5 (20 ng) or GST (20 ng) incubated with His-SRPK1 (50 ng) at 4 °C for 4 h; captured on GST resin; washed five times with NP-40 lysis buffer; immunoblot. Conditions: both partners purified.

On to API5 (from UniProt Q9BZZ5) API5 S464A, for which the “binding against the reference” value in the experiment with MDA5 is on record as “lost”; with RIG‐I it was “lost”; with p62, “weaker”.

B1: GST-API5 (natural protein, human, UniProt Q9BZZ5 1-524, looked up)
chain: MPTVEELYRNYGILADATEQVGQHKDAYQVILDGVKGGTKEKRLAAQFIPKFFKHFPELADSAINAQLDLCEDEDVSIRRQAIKELPQFATGENLPRVADILTQLLQTDDSAEFNLVNNALLSIFKMDAKGTLGGLFSQILQGEDIVRERAIKFLSTKLKTLPDEVLTKEVEELILTESKKVLEDVTGEEFVLFMKILSGLKSLQTVSGRQQLVELVAEQADLEQTFNPSDPDCVDRLLQCTRQAVPLFSKNVHSTRFVTYFCEQVLPNLGTLTTPVEGLDIQLEVLKLLAEMSSFCGDMEKLETNLRKLFDKLLEYMPLPPEEAENGENAGNEEPKLQFSYVECLLYSFHQLGRKLPDFLTAKLNAEKLKDFKIRLQYFARGLQVYIRQLRLALQGKTGEALKTEENKIKVVALKITNNINVLIKDLFHIPPSYKSTVTLSWKPVQKVEIGQKRASEDTTSGSPPKKSSAGPKRDARQIYNPPSGKYSSNLGNFNYEQRGAFRGSRGGRGWGTRGNRSRGRLY
notes: API5, human, full-length gene amplified from HEK293T cells, in pGEX-4T-1; also called pGEX-4T-1-API5; source: E. coli BL21 (pLysS), purified (glutathione resin)
For the molecule B1, the binding result with His-SRPK1 is “binds”.

The record behind these values is paper PMC12499447, “API5 Phosphorylation Promotes Antiviral Immunity by Inhibiting Degradation of Cytosolic RNA Sensor RLRs” (Advanced Science, 2025).
